Measurements from the nanobody polyreactivity screen of Harvey et al. (2022).

test: yeast display, Sf9 membrane polyspecificity reagent, FACS + sequencing; frameworks hold sequencing errors
Outline: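 Synthetic nanobody libraries on Saccharomyces cerevisiae BJ5465 were galactose-induced for 36–48 hours, stained 1 hour at 4 °C with 10% biotinylated, detergent-solubilized Sf9 membrane reagent and enriched on streptavidin microbeads. FACS then separated cells into low and high (top ~1%) gates by anti-HA (expression) and streptavidin (reagent binding) fluorescence. Genes were colony-PCR amplified, MiSeq 2 × 250 sequenced and CDR-length filtered. A clone's polyreactivity label is that of its gate of origin.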

Sequence	polyreactivity (PSR sort gate)
QVQLVESGGGLVQAGGSLRLSCAASGSTFVHYAMGWYRQAPGKERELVAAITWSGGSTYYADSVKGRFTISRDNAKNTVYLPMNSLKPEDTAVYYCAARNFGAWRWYSYGAHLGSEYWGQGTQVTVSS	low polyreactivity
QVQLVESGGGLVQAGGSLRLSCAASGSTFRVYAMGWYRQATVKERELVAAISGSGGSTYYADSVKGRFTISRYNAKNSVYLQMNSLKPEDTAVYYCAARSWYTEYYWGQGTQVSVSS	high polyreactivity
QVQLVESGGGLVQAGGSLRLSCAASGRIFLYYAMGWYRQAPGKERELVAAISFRGGSTYYADSVKGRFTISRDNAKNTVYLQMNSLKPEDTAVYYCNAVRDWGPSQVYDGMDYWGQGTQVTVSS	low polyreactivity
QVQLVESGGGLVQAGGSLRLSCAASGVTFVDYAMGWYRQAPGKERELVAAITVSGDSTYYADSVKGRFTLSRDNAKNTVYLQMNSLKPEDTAVYYCAADPGYYDGGYWGQGTQVTVSS	low polyreactivity
QVQLVESGGGLVQAGGSLRLSCAASGSTFGNYAMGWYRQAPGKEMELVAAISTSGDSTYYADSVKGRFTISRDNAKYTVYLQMNSLKPEDSAVYYCKARGIATGNRHEYWGQGTQVTVSS	low polyreactivity
QVQLVESGGGLVQAGGSLRLSCAASGRTFYLYTKGWYRQAPGKERELVAAISRGGRTYADSVKGRFTISRDNAKNTVYLQMNSLKPEDTAVDYCNRELTSPRRWHVSRAYDYWGQGTQVTVSS	low polyreactivity
QVQLVESGGGLVQAGGSLRLSCAASGFYYYAMGWYRQAPGKERELVAVITYSGGSTYYADSVKGRFTISRDNAKNTVYLQMNSLKPEDTAVYYCAADDYYVALPGLYDYWGQGTQVTVSS	low polyreactivity
QVQLVESGGGLVQAGGSLRLSCAASGRINEYYAMGWYRQAPGKERELVAAISSGGSTYYADSVKGRFTISRDNAKNTVYFQMNSLKPEDTAVYYCAAVYSSYGRRYNSWGQGTQVTVSS	high polyreactivity
QVQLVESGGGLVQAGGSLRLSCAASGSIFYGYAMGWYRQAPGKERELVASITGSGGSTSYADSVKGRFTISRDNAKNTVYLQMNSLKPEDTAVYYCNTVLLQLYKLASGYDYWGQGTQVTVSS	high polyreactivity
QVQLVESGGGLVQAGGSLRLSCAASGFTFPLYAMGWYRQAPGKERELVAVISRSGGSTYYADSVKGRFTISRDNAKNTVYLQMNSLKPEDTAVYYCAARLVPRSPERGNYDYWGQGTQVTVSS	high polyreactivity
QVQLVESVGGLVQAGASLRLSCAASGLNIYTYAMGWYRQAPGKERELVAAIRWRGGRTYYADSVNGRFTISRDNAKNTVYLQMNSLKPEDTAVYYCAADYSNLYKSDYWGQGTQVTLSS	low polyreactivity
QVQLVESGGGLVQAGGSLRLSCAASGRTFDYYSMGWYRQAPGTERELVAAISSSGGRTYYADSVKGRFTISRDNAKNTVYLQMNSLKPEDTAVYYCNAVVSRNYEYWGQGTQVTVSS	high polyreactivity
QVQLVESGGGLVQAGGSLRLSCAASGFTLWLNAMGWYRQAPGTERELVAAITTSDDGTYYADSVKGRFTISRDNAKNTVYLQMNSLKPEDTAVYYCAADYYSVLYDYWGQGTQVTVSS	low polyreactivity
QVQLVESGGGLVQAGGSLRLSCAASGSIFFYYAMGWYRQAPGKERELVASISTDGSTYADSVKGRFTISRDNAKNTVYLQMNSLKPEDTAVYYCATRGAEAERFASYDFDYWGQGTQVTVSS	low polyreactivity
QVHLVESGGGLVQAGGSLRLSCAASGRTFVYNSMGWYRQAPGKERELVAAISSDGASTYYADSVKGRFTISRDNAKNTVYLQMNSLKPEDTAVYYCAADFSYYSYEHYYWGQGTQVTVSS	low polyreactivity
QVQLVESGGGLVQAGGSLRLSCAASGRIFPKNTMGWYRQAPGKERELVAAINWNGGRTYYADSVKGRFTISRDNAKNTVYLQMNSLKPEDTAVYYCAKDGYWDFDYWGQGTQVTVSS	low polyreactivity
QVQLVESGGGLVQAGGSLRLSCAASGSIFPRYAMGWYRQAPGKERELVAAITSSAGSTYYADSVKGRFTISRDNAKNTVYLQMNSLKPEDTAVYYCAASGPWSYWYDYWGQGTQVTVSS	low polyreactivity
QVQLVESGGGLVQAGGSLRLSCAASGSIFYPYAMGWYRPAPGKERELVASITINDGSTYYADSVKGRFTISRDNAKNTVYLQMNSLKPEDTAVYYCNVEPVPGFGSEYEYWGQGTQVTVSS	low polyreactivity
QVQLVESGGGLVQAGGSLRLSCAASGRTFDYNAMGWYRQAPGKERELVAAISSSGGTTYYADPVKGRFTISRDNAKNTVYLQMNSLKPEDTAVYYCNADVGHKYKRRVSLYYWGQGTQVTVSS	low polyreactivity
QVQLVESGGGLVQAGGSLRLSCAASGSTHVYAMGWYRQAPGKERELVAAISLNTGSTYYADSVKGRFTISRDNAKNTVYLQMNSLKPEDTAVYRLNYWGQGTQVTVSS	low polyreactivity
QVQLVESGGGLVQAGGSLRLSCAASGFIFTNVMGWYRQAPGKERELVAAISGRGTSTYYADSVKGRFTISRDNAKNTVYLQMNSLKPEETAVYYCAAASYQSRYWNYYWGQGTQVTVSS	high polyreactivity
QVQLVESGGGLVQAGGSLRLSCAASGRIFVYKAMGSYRQAPGKERELVASITSSGGSTYYADSVKGRFTISRDNAKNTVYLQMNSLKPEDTAVYYCAADVQPDTRSTPEMDYWGQGTQVTVSS	low polyreactivity

Sequence	polyreactivity (PSR sort gate)
QVQLVESGGGVVQAGGSLRLSCAASVSIFDDYAMGWYRQAPGKERELVASISRTGRTYYADSVKGRFTISRDNAKNTVYLQMNSLKPEDTAVYYCAATRYAPYRRYYYWGQGTQVTVSS	high polyreactivity
QVQLVESGGGLVQAGGSLRLSCAASGRTFPRYTMGWYRPAPGKERELVAASATGGSTYYADSVKGRFTISRDNAKNTVYLQMNSLKPEDTAVYYCAARPYSNRYVLGVYYWGQGTQVTVSS	high polyreactivity
QVQLVESGGGLVQAGGTLRLSCAASGLTFYRYAMGWYRQAPGKERELVATIRSGDGTYYADSVKGRFTISRDNAKNTVYLQMNSLKPEDTAVYYCAAKKVYRVYGRYEYWGQGTQVTVSS	high polyreactivity
QDQLVESGGGLVQAGGSLRLICDASGSILWHYAMGWYRQAPGTEREWVAAITQRGGSTYYADSEKGRFTISRDTAKYNVYLQMNSLKPEDTAVYYFNTYPTRTYPSYYYWRQGTQVTVSS	high polyreactivity
QVQLVESGGGLVQAGGSLRLSCAASGFTFYLYALGWYRQAPGKERELVAAITYSGGSTYYADSVKGRFTISRDNAKNTVYLQMNSLKPEDTAVYYCAADARGKVYWGQGTQVTVSS	high polyreactivity
QVQLVESGGGLVQAGGSLRLSCAASGFTFRVNAMGWYRQAPGKERELVAVISHSGGSTYYADSVKGRFTISRDNAKNTVYLQMNSLKPEDTAVYYCAKDRVVLYKYYRVDYWGQGTQVTVSS	low polyreactivity
QVQLVESGGGLVQAGGSLRLSCAASGIIFAYYAMGWYRQAPGKERELVGTNYADSVKGRFTISRDNAKNTVYLQMNSLKPEDTAVYYCNTEWTSLSKSSLGGRYDHWGQGTQVTVSS	low polyreactivity
QVQLVESGGGLVQAGGSLRLSCAASGRTFYGYGMGWYRQAAGKEREFVAAISYSGGSTYYADSVKGRFTISRDNAKNTVYLQMNSLKPEDTAVYYCAARNRGSGFYYWGQGTQVTVSS	high polyreactivity
QVQLVESGGGLVQAGGSLRLSCAASGSIFDLYAMGWYRQAPGKERELVAGISYSGGSTYYADSVKGRFTISRDNAKNTVYLQMNSLKPEDTAVYYCAVDLGYRLGRFDYWGQGTQVTVSS	low polyreactivity
QVQLVESGGGLVQAGGSLRLSCAASGSIFPGNAMGWSRQAPGKEREFVAAISWSGGSTYADSVKGRFTISRDNAKNTVYLQINSVKPEDTAVYYCAAVRRYLKAAYGYWGQGTKVTVSS	low polyreactivity
QVQLVESGGGLVQAGGSLRLSCAASGGIFVIYAMGWYRQAPGKERELVAAITWGGGTTYYADSVKGRFTISRDNAKNTVYLQMNSLNPEDTAVYYCNADGFVYGWYYYYEGYDYWGQGTQVTVSS	low polyreactivity
QVQHVESGGGLVQAGGSLRLSCAASGLIFSWTAMGWYRQAPGKERELVASISYSGGRTYYADSVKGRFTISRDNAKNTVYLQMNSLKPEDTAVYYCAADTNATTDPEMDYWGQGTQVTVSS	low polyreactivity
QVQLVESGGGLVQAGGSLRLSCAASGSIFLWNAKGWYRQAPGKERELVAAISSGTSTNYADSVKGRFTISRDNAKNTVYLQMNSLKPEDTAVYYCAARGRKNQRRYGYWGQGTQVTVSS	low polyreactivity
QVQLVESGGGLVQAGGSLRLSCAASGRTFKRYAMGWYRQAPGNERELVAAIRRGGITNYADSVKGRFTISRDNAKNTVYLQMNSLKPEDTAVYYCAKDGVTYPYSYEYDYWGLGTQVTVSS	low polyreactivity
QVQLVESGGGLVQAGGSLRLSCAASGFIFPYYAMGWYRQAPGKEREFVAAITFSATRTYYADSVKGRFTISRDNAKNTVYLQMNSLKPEDTAVYYCNARGGVYGSYFEFNYWGQGTQVTVSS	low polyreactivity
QVQLVESGGGLVQAGGSLRLSCAASGRIFDWYAMGWYRQAPGKERELVAAISTSGANTYYADSVKGRFTISRDNAKNTVYLQMNSLKPEDTAVYYCATDPYQPYEGDYWGQGSQVTVSS	low polyreactivity
QVQLVESGGGLVQAGGSLRLSCAASGSIFWSYAMGWYRQAPGKERELVAAITYSGTSTYYADSVKGRFTISRDNAKNTVYLQMNSLKPEDTAVYYCNADAYVYFDDGDYWGQGTQVTVSS	low polyreactivity
QVQLVESGGGLVQAGGSLRLSCAASGSTFYKYGMGWYRPAPGKERELVAAISGSGDSTYYADSVKGRFTISRDNAKNTVYLQMNSLKPEDTAVYYCNAGPWWYLHEYDYWGQGTQVTVSS	low polyreactivity
HVQLVESGGGLVQAGGSLRLSCAASGRIFTLYDMGWYRQAPGKERELVAAISNSAGSTYYADSVKGRFTISRDNAKNTVYLQMNSLKPEDTAVYYCAAELWSWGGARDYWGQGTQVTVSS	high polyreactivity
QVQLVESGGGLVQAGGSLRLSCAASGSIFRRYAMGWYRQAPGKERELVAVITTDGSTYYADSVKGRFTISRDNAKNTVYLQMNSLKPEDTAVYYCAADVRHYIWEYYYWGQGTQVTVSS	low polyreactivity
QVQLVESGGGLVQAGGILRLSCAASGIIFRVNAMGWYRKAPGKERELVAAISGSGGRTYYADSVKGRFTISRDNAKNTVYLQMNSVKPEDTAVYYCAAHLLHYRGDYWGQGTQETVSS	high polyreactivity
